Measurements: article PMC9352680, “A comprehensive thermodynamic model for RNA binding by the Saccharomyces cerevisiae Pumilio protein PUF4”
Positions count from the first letter of the chain named. Numbers in names are those of the source.

T1: PUF4 RNA-binding domain (Saccharomyces cerevisiae, UniProt P25339 537-888)
T1 sequence: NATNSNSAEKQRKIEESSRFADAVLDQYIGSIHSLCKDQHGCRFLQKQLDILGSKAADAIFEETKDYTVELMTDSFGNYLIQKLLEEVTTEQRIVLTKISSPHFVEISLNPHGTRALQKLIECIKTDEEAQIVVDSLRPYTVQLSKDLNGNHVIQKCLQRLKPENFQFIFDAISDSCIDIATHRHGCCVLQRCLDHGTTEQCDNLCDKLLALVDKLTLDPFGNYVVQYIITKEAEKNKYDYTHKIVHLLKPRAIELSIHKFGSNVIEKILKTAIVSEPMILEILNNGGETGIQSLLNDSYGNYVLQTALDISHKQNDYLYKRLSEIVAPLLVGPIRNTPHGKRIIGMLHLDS

B1: Ic_S2_P3E.1_K3.1_C3.1_H3.1_A3.1_[T5G]_[A6T]_F3.1_[T7A]_T3.1 (ssRNA)
RNA: UUUGAUUAAUAUGAUAUCGUUCUUUCUUGUAGUAAUUCUUUCUCGAUAUCAUAUUAAUCUUU
B2: Ic_S2_P3E.1_K3.1_C3.1_H3.1_A3.1_[T5G]_[A6C]_F3.1_[T7C]_[A8T]_T3.1 (ssRNA)
RNA: B1 RNA with U33C, A34C, A35U
B3: Ic_S2_P3E.1_K3.1_C3.1_H3.1_A3.1_[T5C]_[A6T]_F3.1_[T7C]_[A8T]_T3.1 (ssRNA)
RNA: B1 RNA with G32C, A34C, A35U
B4: Ic_S2_P3E.1_K3.1_C3.1_H3.1_A3.1_[T5C]_[A6T]_F3.1_[T7G]_[A8C]_T3.1 (ssRNA)
RNA: B1 RNA with G32C, A34G, A35C
B5: Ic_S2_P3E.1_K3.1_C3.1_H3.1_A3.1_[T5C]_[A6G]_F3.1_[A8T]_T3.1 (ssRNA)
RNA: B1 RNA with G32C, U33G, A34U, A35U
B6: Ic_S2_P3E.1_K3.1_C3.1_H3.1_A3.1_[T5G]_[A6C]_F3.1_[T7A]_[A8G]_T3.1 (ssRNA)
RNA: B1 RNA with U33C, A35G
B7: Ic_S2_P3E.1_K3.1_C3.1_H3.1_A3.1_[T5G]_[A6T]_F3.1_[T7C]_[A8G]_T3.1 (ssRNA)
RNA: B1 RNA with A34C, A35G
B8: Ic_S2_P3E.1_K3.1_C3.1_H3.1_A3.1_[T5C]_[A6T]_F3.1_[T7G]_[A8G]_T3.1 (ssRNA)
RNA: B1 RNA with G32C, A34G, A35G
B9: Ic_S2_P3E.1_K3.1_C3.1_H3.1_A3.1_[T5G]_[A6T]_F3.1_[A8T]_T3.1 (ssRNA)
RNA: B1 RNA with A34U, A35U
B10: Ic_S2_P3E.1_K3.1_C3.1_H3.1_A3.1_[T5C]_[A6T]_F3.1_[T7A]_[A8C]_T3.1 (ssRNA)
RNA: B1 RNA with G32C, A35C
B11: Ic_S2_P3E.1_K3.1_C3.1_H3.1_A3.1_[T5G]_[A6C]_F3.1_[A8C]_T3.1 (ssRNA)
RNA: B1 RNA with U33C, A34U, A35C
B12: Ic_S2_P3E.1_K3.1_C3.1_H3.1_A3.1_[T5C]_[A6T]_F3.1_[T7A]_[A8T]_T3.1 (ssRNA)
RNA: B1 RNA with G32C, A35U
B13: Ic_S1_P5E.1_K5.1_C5.1_H5.1_A5.1_[T5A]_[T6C]_[A7G]_F5.1_[T9C]_[A10T]_T5.1 (ssRNA)
RNA: UCUCUUUGUAACGUCUUCUCUU
B14: Ic_S1_P5E.1_K5.1_C5.1_H5.1_A5.1_[T6C]_F5.1_[T8G]_[T9C]_[A10C]_T5.1 (ssRNA)
RNA: UCUCUUUGUAUCAGCCUCUCUU
B15: Ib_S1_P3E.1_K3.1_C3.1_H3.1_[G2T]_A3.1_[A6G]_F3.1_T3.1 (ssRNA)
RNA: UCUCUUUUUAUGUAUCUCUU
B16: Ib_S1_P3E.1_K3.1_C3.1_H3.1_[G2C]_A3.1_[A6T]_F3.1_T3.1 (ssRNA)
RNA: UCUCUUUCUAUUUAUCUCUU
B17: Ic_S1_P5E.1_K5.1_C5.1_H5.1_A5.1_[T6G]_[A7T]_F5.1_[T8A]_[T9A]_T5.1 (ssRNA)
RNA: UCUCUUUGUAUGUAAAUCUCUU
B18: Ic_S1_P5E.1_K5.1_C5.1_H5.1_A5.1_[T5A]_[T6C]_[A7T]_F5.1_[T8A]_[A10C]_T5.1 (ssRNA)
RNA: UCUCUUUGUAACUAUCUCUCUU
B19: Ic_S1_P5E.1_K5.1_C5.1_H5.1_A5.1_[T5C]_[A7C]_F5.1_[T9C]_[A10T]_T5.1 (ssRNA)
RNA: UCUCUUUGUACUCUCUUCUCUU
B20: Ic_S1_P5E.1_K5.1_C5.1_H5.1_A5.1_[T5C]_[T6A]_F5.1_[T9G]_[A10G]_T5.1 (ssRNA)
RNA: UCUCUUUGUACAAUGGUCUCUU
B21: Ib_S1_P3E.1_K3.1_C3.1_H3.1_[T1A]_A3.1_[A6C]_F3.1_T3.1 (ssRNA)
RNA: UCUCUUAGUAUCUAUCUCUU
B22: Ic_S1_P5E.1_K5.1_C5.1_H5.1_A5.1_[T5G]_F5.1_[T8A]_[A10T]_T5.1 (ssRNA)
RNA: UCUCUUUGUAGUAAUUUCUCUU
B23: Ib_S1_P3E.1_K3.1_C3.1_H3.1_[G2A]_A3.1_[T5C]_F3.1_T3.1 (ssRNA)
RNA: UCUCUUUAUACAUAUCUCUU
B24: Ic_S1_P5E.1_K5.1_C5.1_H5.1_A5.1_[T6G]_[A7T]_F5.1_[T8C]_[T9A]_[A10T]_T5.1 (ssRNA)
RNA: UCUCUUUGUAUGUCAUUCUCUU
B25: Ib_S1_P3E.1_K3.1_C3.1_H3.1_[G2C]_A3.1_[T5A]_F3.1_T3.1 (ssRNA)
RNA: UCUCUUUCUAAAUAUCUCUU
B26: Ic_S1_P5E.1_K5.1_C5.1_H5.1_A5.1_[T5C]_[A7C]_F5.1_[T9A]_[A10T]_T5.1 (ssRNA)
RNA: UCUCUUUGUACUCUAUUCUCUU
B27: Ic_S1_P5E.1_K5.1_C5.1_H5.1_A5.1_[T5C]_[A7G]_F5.1_[T8C]_[T9A]_[A10T]_T5.1 (ssRNA)
RNA: UCUCUUUGUACUGCAUUCUCUU
B28: Ic_S1_P5E.1_K5.1_C5.1_H5.1_A5.1_[T5A]_[T6A]_[A7T]_F5.1_[T9A]_T5.1 (ssRNA)
RNA: UCUCUUUGUAAAUUAAUCUCUU
B29: Ic_S1_P5E.1_K5.1_C5.1_H5.1_A5.1_[T5C]_[T6G]_[A7C]_F5.1_[T8C]_[T9C]_T5.1 (ssRNA)
RNA: UCUCUUUGUACGCCCAUCUCUU
B30: Ic_S1_P5E.1_K5.1_C5.1_H5.1_A5.1_[T5G]_[T6C]_[A7C]_F5.1_[T8C]_[T9A]_[A10T]_T5.1 (ssRNA)
RNA: UCUCUUUGUAGCCCAUUCUCUU

What follows are binders tested against T1, PUF4 RNA-binding domain (assay: Mg; RNA-MaP; 20 mM Na-HEPES pH 7.4, 30 mM KOAc, 0.75 mM MgCl2, 0.1% Tween-20, 5% glycerol, 0.1 mg/mL BSA, 2 mM DTT; 25 C; 0.0125-409.6 nM protein). Conditions: tags: N-His6-TEV cleaved; C-SNAP kept, Cy3B-labelled; label: tethered on chip by stalled RNA polymerase.
B1 showed a Kd of 650 nM.
For B2, the Kd was 63.9 nM.
B3 showed a Kd of 10.7 nM.
With B4 the Kd was 381 nM.
B5 showed a Kd of 14.5 nM.
B6 gave a Kd of 754 nM.
With B7 the Kd was 436 nM.
B8 gave a Kd of 1390 nM.
B9 showed a Kd of 23.2 nM.
B10 showed a Kd of 47 nM.
Work on B11 yielded a Kd of 181 nM.
Work on B12 yielded a Kd of 3.82 nM.
B13 was tested, and the Kd was 2100 nM.
In the case of B14, the Kd is reported as 918 nM.
Work on B15 yielded a Kd of 354 nM.
B16 showed a Kd greater than 2300 nM.
In the case of B17, the Kd is reported as 92.9 nM.
B18 gave a Kd of 113 nM.
B19 was tested, and the Kd was 295 nM.
Binder B20 has a Kd of 12.5 nM.
For B21, the Kd was greater than 2300 nM.
In the case of B22, the Kd is reported as 1270 nM.
With B23 the Kd was 900 nM.
For B24, the Kd was 297 nM.
Work on B25 yielded a Kd greater than 2300 nM.
B26 gave a Kd of 3.85 nM.
For B27, the Kd was 534 nM.
For B28, the Kd was 1.57 nM.
With B29 the Kd was 564 nM.
Binder B30 has a Kd of 1530 nM.
